The chains are these.
B1: PDGFRβ 890-898 peptide ILLWEIFTL (peptide)
peptide: ILLWEIFTL
notes: Synthetic peptide (Fmoc), >96% pure; also called PDGFRβ (891)

Data on 19 molecules can be found in patent US20160220651A1 (UNIVERSITY OF PITTSBURGH OF THE COMMONWEALTH SYSTEM OF …, published 2016).

The test addresses T1, HLA-A2 complexes expressed by T2 cells (human).
T1 construct: whole, on cells; also called HLA-A2.1 class I molecule
As to the kind of experiment: T2 class I stabilization assay, flow cytometry. For orientation: Flow cytometry measures light scatter and fluorescence of single cells or particles in a stream.
Take ILGVLTSLV (Synthetic peptide (Fmoc), >96% pure) [DLK1 310-318 peptide ILGVLTSLV]: the binding result is “binds”.
As for RLLGNVLVCV (Synthetic peptide (Fmoc), >96% pure) [HBB 105-114 peptide RLLGNVLVCV], the entry is “binds”; as for VLLGAVCGV (Synthetic peptide (Fmoc), >96% pure) [NRP1 869-877 peptide VLLGAVCGV], “binds”.
RLTPGVHEL (Synthetic peptide (Fmoc), >96% pure) [DLK1 269-277 peptide RLTPGVHEL]: the binding result was “binds”.
For LLVPTCVFLV (Synthetic peptide (Fmoc), >96% pure) [TEM1 691-700 peptide LLVPTCVFLV], the binding result is listed as “binds”.
As for NMLGMLSGL (Synthetic peptide (Fmoc), >96% pure) [NRP2 436-444 peptide NMLGMLSGL], the binding result is “binds”.
As to LAALPHSCL (Synthetic peptide (Fmoc), >96% pure) [RGS5 5-13 peptide LAALPHSCL], the binding result was “binds”.
Consider FLNKCETWV (Synthetic peptide (Fmoc), >96% pure) [DLK1 326-334 peptide FLNKCETWV], for which the binding result is given as “binds”.
For the molecule DIWDGIPHV (Synthetic peptide (Fmoc), >96% pure) [NRP2 214-222 peptide DIWDGIPHV], the binding result is “binds”.
As to YLQVDLRFL (Synthetic peptide (Fmoc), >96% pure) [NRP2 328-336 peptide YLQVDLRFL], the binding result was “binds”.
Consider RLLVVYPWT (Synthetic peptide (Fmoc), >96% pure) [HBB 31-39 peptide RLLVVYPWT], for which the binding result is “binds”.
As for GLLRFVTAV (Synthetic peptide (Fmoc), >96% pure) [NRP1 331-339 peptide GLLRFVTAV], the entry is “binds”.
For the molecule TLSNLSFPV (Synthetic peptide (Fmoc), >96% pure) [NG2 770-778 peptide TLSNLSFPV], the binding result is “binds”.
TLADFDPRV (Synthetic peptide (Fmoc), >96% pure) [EphA2 883-891 peptide TLADFDPRV]: the binding result is listed as “binds”.
In the case of VIAMFFWLL (Synthetic peptide (Fmoc), >96% pure) [VEGFR2 773-781 peptide VIAMFFWLL], the binding result is reported as “binds”.
TLFWLLLTL (Synthetic peptide (Fmoc), >96% pure) [VEGFR1 770-778 peptide TLFWLLLTL]: the binding result was “binds”.
With B1, the binding result is given as “binds”.
On to LILPLLFYL (Synthetic peptide (Fmoc), >96% pure) [NG2 2238-2246 peptide LILPLLFYL], for which the binding result is listed as “binds”.
As for GMLGMVSGL (Synthetic peptide (Fmoc), >96% pure) [NRP1 433-441 peptide GMLGMVSGL], the binding result is “binds”.
